The assay deals with T1, human islet amyloid polypeptide (IAPP) (human) (not fully specified).
T1 chain: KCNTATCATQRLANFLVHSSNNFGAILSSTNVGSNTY
As to the kind of experiment: seeded thioflavin T fluorescence aggregation kinetics; 5 uM monomeric IAPP with preformed IAPP fibril seeds at 0 to 33% (monomer equivalents), 33 mM acetate, 150 mM KCl, pH 5.3, 37 C, quiescent; elongation (monomer added to fibril ends) from the initial gradient at 33% seeds and the fibril length by cryo-TEM. The conditions noted are these: remark: other sources report otherwise.

Bridge positions count the residues as written; N and C are the ends. Ends that are not written are not given here.

On to KCNTATCATQRLANFLVHSSNNFGAILSSTNVGSNTY-NH2 (disulfide 2-7 (inferred); not fully specified) [human islet amyloid polypeptide (IAPP)], for which the elongation rate constant k+ turned out to be 500000 M⁻¹ s⁻¹.
